Experimental data from paper PMC2756588.

T1: Pin3, Q06449
T1 sequence (Q06449 53-122, looked up): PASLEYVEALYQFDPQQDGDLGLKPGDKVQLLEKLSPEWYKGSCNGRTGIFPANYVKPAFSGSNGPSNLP

T2: Lsb3, P43603
T2 sequence (P43603 385-451, looked up): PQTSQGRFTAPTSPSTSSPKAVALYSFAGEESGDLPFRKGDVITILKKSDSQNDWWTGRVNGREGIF

T3: Bbc1, P47068
T3 sequence (P47068 1-78, looked up): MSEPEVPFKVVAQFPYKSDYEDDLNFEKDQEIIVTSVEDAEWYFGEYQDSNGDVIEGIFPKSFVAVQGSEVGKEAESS

T4: Bud14, P27637
T4 sequence (P27637 247-328, looked up): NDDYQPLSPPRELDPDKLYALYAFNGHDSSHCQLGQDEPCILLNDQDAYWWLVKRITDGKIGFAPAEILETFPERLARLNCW

T5: Sla1-3, P32790
T5 sequence (P32790 344-424, looked up): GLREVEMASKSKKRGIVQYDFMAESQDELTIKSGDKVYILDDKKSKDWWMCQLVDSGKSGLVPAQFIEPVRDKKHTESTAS

T6: Lsb4, P32793
T6 sequence (P32793 402-468, looked up): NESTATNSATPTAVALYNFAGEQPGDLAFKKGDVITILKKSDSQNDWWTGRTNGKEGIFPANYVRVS

T7: Myo5, Q04439
T7 sequence (Q04439 1072-1160, looked up): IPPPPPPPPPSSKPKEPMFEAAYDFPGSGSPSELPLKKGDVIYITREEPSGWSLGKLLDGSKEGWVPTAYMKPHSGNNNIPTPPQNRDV

T8: Bzz1-1, P38822
T8 sequence (P38822 478-572, looked up): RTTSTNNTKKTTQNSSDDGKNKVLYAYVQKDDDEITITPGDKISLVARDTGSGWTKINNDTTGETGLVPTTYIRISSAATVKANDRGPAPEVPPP

T9: Nbp2, Q12163
T9 sequence (Q12163 103-180, looked up): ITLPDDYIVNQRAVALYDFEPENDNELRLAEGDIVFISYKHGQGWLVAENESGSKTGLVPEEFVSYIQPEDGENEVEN

T10: Fus1, P11710
T10 sequence (P11710 432-512, looked up): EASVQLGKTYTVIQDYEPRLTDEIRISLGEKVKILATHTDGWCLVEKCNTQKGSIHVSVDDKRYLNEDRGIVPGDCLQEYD

T11: Sla1-2, P32790
T11 sequence (P32790 60-140, looked up): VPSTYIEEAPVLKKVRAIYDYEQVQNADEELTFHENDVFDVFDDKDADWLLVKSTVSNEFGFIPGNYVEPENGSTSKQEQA

T12: Abp1, P15891
T12 sequence (P15891 535-592, looked up): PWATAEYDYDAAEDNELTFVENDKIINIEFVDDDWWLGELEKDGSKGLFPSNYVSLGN

T13: Pex13, P80667
T13 sequence (P80667 295-386, looked up): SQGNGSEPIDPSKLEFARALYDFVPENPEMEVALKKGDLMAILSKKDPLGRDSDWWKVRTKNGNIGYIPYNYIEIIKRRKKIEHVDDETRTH

T14: Boi1, P38041
T14 sequence (P38041 1-86, looked up): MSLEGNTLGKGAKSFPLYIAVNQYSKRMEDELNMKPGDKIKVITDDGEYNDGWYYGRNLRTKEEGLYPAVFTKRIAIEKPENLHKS

T15: Hof1, Q05080
T15 sequence (Q05080 590-669, looked up): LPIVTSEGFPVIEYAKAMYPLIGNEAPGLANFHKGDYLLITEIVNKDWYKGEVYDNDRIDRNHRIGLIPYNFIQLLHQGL

T16: Bzz1-2, P38822
T16 sequence (P38822 568-633, looked up): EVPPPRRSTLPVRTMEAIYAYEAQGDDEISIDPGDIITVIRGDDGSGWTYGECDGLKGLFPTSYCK

T17: Hse1, P38753
T17 sequence (P38753 208-285, looked up): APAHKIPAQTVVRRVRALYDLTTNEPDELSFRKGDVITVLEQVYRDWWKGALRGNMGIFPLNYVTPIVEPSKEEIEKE

T18: Boi2, P39969
T18 sequence (P39969 32-116, looked up): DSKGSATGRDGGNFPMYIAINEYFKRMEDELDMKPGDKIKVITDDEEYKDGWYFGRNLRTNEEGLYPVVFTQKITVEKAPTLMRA

T19: Cyk3, Q07533
T19 sequence (Q07533 1-83, looked up): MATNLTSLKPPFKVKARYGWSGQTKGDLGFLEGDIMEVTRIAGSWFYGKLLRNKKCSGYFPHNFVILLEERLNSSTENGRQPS

T20: Lsb1, P53281
T20 sequence (P53281 45-122, looked up): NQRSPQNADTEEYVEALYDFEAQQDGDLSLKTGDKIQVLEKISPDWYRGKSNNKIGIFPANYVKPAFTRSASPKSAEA

T21: Cdc25, P04821
T21 sequence (P04821 50-136, looked up): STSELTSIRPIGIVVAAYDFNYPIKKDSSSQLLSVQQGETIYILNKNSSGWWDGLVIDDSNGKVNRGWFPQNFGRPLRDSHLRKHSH


Legend:
Test in all cases: SPOT array
[1] = target: T1, Pin3, Q06449; settings: median of control spots 2171
[2] = target: T2, Lsb3, P43603; settings: median of control spots 406
[3] = target: T3, Bbc1, P47068; settings: median of control spots 796
[4] = target: Sho1, P40073; settings: median of control spots 1148
Sho1, P40073, sequence (P40073 287-367): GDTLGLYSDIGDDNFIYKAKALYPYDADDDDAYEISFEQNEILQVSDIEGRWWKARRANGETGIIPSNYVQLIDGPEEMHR

[5] = target: T4, Bud14, P27637; settings: median of control spots 956
[6] = target: T5, Sla1-3, P32790; settings: median of control spots 5475
[7] = target: Bem1-1, P29366; settings: median of control spots 4282
Bem1-1, P29366, sequence (P29366 55-141): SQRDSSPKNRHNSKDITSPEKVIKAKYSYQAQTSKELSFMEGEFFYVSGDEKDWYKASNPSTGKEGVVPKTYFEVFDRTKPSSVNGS

[8] = target: T6, Lsb4, P32793; settings: median of control spots 397
[9] = target: T7, Myo5, Q04439; settings: median of control spots 471
[10] = target: T8, Bzz1-1, P38822; settings: median of control spots 4446
[11] = target: GST; settings: median of control spots 978
[12] = target: T9, Nbp2, Q12163; settings: median of control spots 357
[13] = target: Bem1-2, P29366; settings: median of control spots 4347
Bem1-2, P29366, sequence (P29366 139-227): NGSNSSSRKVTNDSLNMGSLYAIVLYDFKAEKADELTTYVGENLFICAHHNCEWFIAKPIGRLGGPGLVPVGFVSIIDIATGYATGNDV

[14] = target: Myo3, P36006; settings: median of control spots 468
[15] = target: T10, Fus1, P11710; settings: median of control spots 1200
[16] = target: T11, Sla1-2, P32790; settings: median of control spots 712
[17] = target: T12, Abp1, P15891; settings: median of control spots 935
[18] = target: T13, Pex13, P80667; settings: median of control spots 1341
[19] = target: T14, Boi1, P38041; settings: median of control spots 1162
[20] = target: T15, Hof1, Q05080; settings: median of control spots 4086
[21] = target: T16, Bzz1-2, P38822; settings: median of control spots 4538
[22] = target: T17, Hse1, P38753; settings: median of control spots 1727
[23] = target: T18, Boi2, P39969; settings: median of control spots 1161
[24] = target: T19, Cyk3, Q07533; settings: median of control spots 1451
[25] = target: Rvs167, P39743; settings: median of control spots 2707
Rvs167, P39743, sequence (P39743 419-482): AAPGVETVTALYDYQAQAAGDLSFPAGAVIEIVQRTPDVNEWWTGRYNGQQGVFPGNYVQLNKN

[26] = target: T20, Lsb1, P53281; settings: median of control spots 388
[27] = target: T21, Cdc25, P04821; settings: median of control spots 969

| Binder | SPOT intensity [1] | SPOT intensity [2] | SPOT intensity [3] | SPOT intensity [4] | SPOT intensity [5] | SPOT intensity [6] | SPOT intensity [7] | SPOT intensity [8] | SPOT intensity [9] | SPOT intensity [10] | SPOT intensity [11] | SPOT intensity [12] | SPOT intensity [13] | SPOT intensity [14] | SPOT intensity [15] | SPOT intensity [16] | SPOT intensity [17] | SPOT intensity [18] | SPOT intensity [19] | SPOT intensity [20] | other results |
| --- | --- | --- | --- | --- | --- | --- | --- | --- | --- | --- | --- | --- | --- | --- | --- | --- | --- | --- | --- | --- | --- |
| NHSRSLFSLPGNQQS | 16 | 0 | 35 | 141 | 7 | 124 | 3 | 0 | 1 | 2 | 2 | 77 | 353 | 13 | 653 | 1 | 53 | 36 | 7 | 364 | SPOT intensity [21]: 19; SPOT intensity [22]: 114; SPOT intensity [23]: 2; SPOT intensity [24]: 0; SPOT intensity [25]: 0; SPOT intensity [26]: 46; SPOT intensity [27]: 333 |
| NFLRLLIGLPSQNEL | 15 | 0 | 156 | 93 | 22 | 0 | 1 | 0 | 0 | 2 | 0 | 84 | 0 | 10 | 243 | 0 | 55 | 47 | 122 | 3 | SPOT intensity [21]: 0; SPOT intensity [22]: 10; SPOT intensity [23]: 6; SPOT intensity [24]: 9; SPOT intensity [25]: 0; SPOT intensity [26]: 2; SPOT intensity [27]: 354 |
| NPNRRAPRRPLSTQH | 4 | 2 | 294 | 267 | 17 | 607 | 3 | 18 | 0 | 0 | 0 | 626 | 476 | 46 | 59 | 4 | 151 | 27 | 28 | 70 | SPOT intensity [21]: 56; SPOT intensity [22]: 113; SPOT intensity [23]: 0; SPOT intensity [24]: 3; SPOT intensity [25]: 0; SPOT intensity [26]: 52; SPOT intensity [27]: 221 |
| NNQRRKPLLLNIGDH | 0 | 0 | 11 | 79 | 17 | 138 | 0 | 0 | 0 | 0 | 0 | 42 | 25 | 0 | 28 | 0 | 56 | 0 | 5 | 18 | SPOT intensity [21]: 5; SPOT intensity [22]: 50; SPOT intensity [23]: 1; SPOT intensity [24]: 1; SPOT intensity [25]: 0; SPOT intensity [26]: 0; SPOT intensity [27]: 216 |
